# Results from patent US6723841.
# Assays:
# [1] = target: T1, human CRF2α receptor (human) (UniProt Q13324); assay: cell-based or functional assay
# T1 sequence: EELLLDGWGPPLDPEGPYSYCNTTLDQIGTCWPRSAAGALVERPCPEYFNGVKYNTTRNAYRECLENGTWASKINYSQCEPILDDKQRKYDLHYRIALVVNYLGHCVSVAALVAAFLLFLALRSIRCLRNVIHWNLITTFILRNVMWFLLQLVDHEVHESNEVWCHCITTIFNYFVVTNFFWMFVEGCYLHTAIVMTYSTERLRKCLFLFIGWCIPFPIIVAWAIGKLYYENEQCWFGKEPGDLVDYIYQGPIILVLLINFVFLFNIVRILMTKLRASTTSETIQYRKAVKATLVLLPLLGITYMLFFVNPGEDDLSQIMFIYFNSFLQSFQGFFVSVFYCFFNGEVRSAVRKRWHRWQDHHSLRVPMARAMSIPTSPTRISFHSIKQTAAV
# [2] = target: human CRF1 receptor (human) (UniProt P34998); assay: cell-based or functional assay
# Sequence of human CRF1 receptor (human) (P34998 24-415): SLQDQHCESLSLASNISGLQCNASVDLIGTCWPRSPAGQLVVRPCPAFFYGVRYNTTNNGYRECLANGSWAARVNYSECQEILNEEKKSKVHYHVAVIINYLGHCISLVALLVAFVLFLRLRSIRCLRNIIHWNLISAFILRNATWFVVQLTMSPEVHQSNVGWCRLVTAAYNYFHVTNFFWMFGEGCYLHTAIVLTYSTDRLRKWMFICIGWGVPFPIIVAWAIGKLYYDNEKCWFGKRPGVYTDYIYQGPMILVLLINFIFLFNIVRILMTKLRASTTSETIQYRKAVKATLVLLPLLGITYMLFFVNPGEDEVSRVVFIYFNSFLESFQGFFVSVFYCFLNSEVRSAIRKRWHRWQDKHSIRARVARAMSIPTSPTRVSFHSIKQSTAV
substance,measurement,setting,value
Gly41 r/hCRF-OH (from UniProt P06850 154-194) (peptide),EC50 of adenylate cyclase stimulation (cAMP),[1],> 1000 nM
same,EC50 of adenylate cyclase stimulation (cAMP),[2],800 nM
Urotensin I (peptide),EC50 of adenylate cyclase stimulation (cAMP),[1],2 nM
same,EC50 of adenylate cyclase stimulation (cAMP),[2],4 nM
α-helical oCRF(9-41) (peptide),EC50 of adenylate cyclase stimulation (cAMP),[1],> 1000 nM
same,EC50 of adenylate cyclase stimulation (cAMP),[2],> 1000 nM
